# According to the nanobody polyreactivity screen of Harvey et al. (2022):
# Assay: yeast display, Sf9 membrane polyspecificity reagent, FACS + sequencing; frameworks hold sequencing errors
# Outline: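 Synthetic nanobody libraries on Saccharomyces cerevisiae BJ5465 were galactose-induced for 36–48 hours, stained 1 hour at 4 °C with 10% biotinylated, detergent-solubilized Sf9 membrane reagent and enriched on streptavidin microbeads. FACS then separated cells into low and high (top ~1%) gates by anti-HA (expression) and streptavidin (reagent binding) fluorescence. Genes were colony-PCR amplified, MiSeq 2 × 250 sequenced and CDR-length filtered. A clone's polyreactivity label is that of its gate of origin.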
row,Sequence,polyreactivity (PSR sort gate)
1,QVQLVESGGALVQAGGSLRLTCAASGSTFWDNSMGWYRQAPGKEREFVADITAIGGTTYYADSVKGRFTISRDNAQNTVYLQMNSLKPEDTAVYYCAADWTTYGFSYFSIYYYWGQGTQVTVSS,low polyreactivity
2,QVQLVESGGAVVHAGGSLRLSCAASGFTFRYYDKGWYRQAHGKEMELVAAISSGGSTDYADSVKGRFTISRDNAKNTVYLQMNCLKPEDNAVYYCAADWWVVYTYDYWGPGTQVTVSS,low polyreactivity
3,QVQLVESGGCIDQAGGSLRLSCAASGSNFRGYAKGWYRQAPGKERELVAAITWSGGSTYYADSVKGRFTISRDKAKNTVSLQMNSLKPEDTAVYYCAAEYWDSDTYDYCGQGTQVTVSS,low polyreactivity
4,QVQLVESGGCIVQAGGSLRLSCAASGNIFYRNAMGWYRQAPGKERELVAAISSGGITYYADYVKGRFTISRDNAKNTVYLQMNSLKPDDTAVYYCAAYIRNCRATYEYWGPGTQVTVSS,high polyreactivity
5,QVQLVESGGCIVQAGGSLRLSCAASGRIFKLYAMGWYRQAPGKERELVAAITTSGGSTYYADSVKGRFTISRDNAKNTVSLEMNSLIPEDTAGYYCNARAVRYPFTGNYWGQGTQVTVSS,high polyreactivity
6,QVQLVESGGCKVQAGGSLRISCAASGRIFGYYMGWYRQAPGKEREMVARITFRGGSTYYADSVKGRFTNSRDNAKNNVYLQMNSLKPEDTAVYYCNARGKGGSTNRSDYWGQGTQVTVSS,high polyreactivity
7,QVQLVESGGCLDQAGGSLRLSCAASGFTLHSYAMGWYRQAPGKERELVAAITTGGSTYYADSVKGRLTISRDNAKNTVYLQMNSLKPEDTAVYYCAAEDPGPYGGYVYWGQGTQVTVSS,low polyreactivity
8,QVQLVESGGCLFQAGASLRLSCAASGRILAYYAMGWYRQAPGKERELVAAITSGGRTYYADSVKGRFTISRDNAKNTVYLQMNSLKPEDTAVYYCNRVTGYDSGDGYWGQGTQVTVSS,high polyreactivity
9,QVQLVESGGCLVEAGGSLRLSCAASGRIFVHKAMGWYRQAPGKEREFVAAISLRGGSTYYADSVKGRFTISRDNAKNTVYLQMNFLKPEVTAVYYCAAVPAHFYGYDYWGQGTQVTVSS,low polyreactivity
10,QVQLVESGGCLVHAGGSHRLRCAASGSTFSRYAMGWYRHAPGKERELVAAISSSGGSTYYADSVKGRFTISRDNAKNTVYLQMNSLKPEDTAVYYCAARIWRTRRYDYWGQGTQVTVSS,high polyreactivity
11,QVQLVESGGCLVQAGGRLRLSCAASGRIFYWNDMGWYRQAPGKERELVAAIDFSGASTYYADSVKGRFTISRDNAKNTVYLEMNSLKPEDTAVYYCAAYQRRGKYQMDYWGQGTQVTVSS,low polyreactivity
12,QVQLVESGGCLVQAGGRLRLSCAASGSTFAYYSMGWDRQAPGKERELVAAITDSGGSTYYADSVKGRFTISRDNAKNTVYLQMNSLIPEDTAVYYCAVYGPWAYYPMGYWGQGSQVTVSS,low polyreactivity
13,QVQLVESGGCLVQAGGRLRLSCAPSGFTFRKYAMGWYRQAPGKERQLVAAITANGGRTYNADSVKGRFTISRDNAKYTDYLKMNSLKPEDTSVYYCYARPSRGFRPRSAYGYWGQGTQVTVSS,high polyreactivity
14,QVQLVESGGCLVQAGGSHRLSCAASGFIFYRYAMGWYRQAPGKERELVAAISGSGGRTYYADSVKGRFTISRDNAKNTVYLQMNSLKPEDTAVYYCAADKQAYVTDDYWGQGTQVTVSS,high polyreactivity
15,QVQLVESGGCLVQAGGSIRLSCAASGSILGFNAMGWSRQAPGKERELVAAISTSGSSTYYADSVKGRFTISRDNATISVYLLMNSLIPEDTAVYYCAKRRGGSRPYYYWGQRTQVTVSS,high polyreactivity
16,QVQLVESGGCLVQAGGSLRFSCAASGLTLFRYAMGWYRQAPGKERELVAAIDYGGGTYYADSVKGRFRISRDNAKNTVYLQMNSLKPEDTAVYYCAVEPEYKYYEGDYWGQGTQVNVSS,low polyreactivity
17,QVQLVESGGCLVQAGGSLRLSCAASGFIFPPNAMGWYRQAPGKERELVASISSSGGSTYYADSVKGRFTISRDNAKNTVYLQMNSLKPEDTAVYYCAADWFYGWGKYDYWGQGTQVTVSS,low polyreactivity
18,QVQLVESGGCLVQAGGSLRLSCAASGFIIRYYAMGWYRQAPGKERELDAAITRGGSTYYADSVKGRFRISRDNAKNTVYLQMNSLNPEDTAVYYCAARLYTQYYYWGQGTQVNVSS,high polyreactivity
19,QVQLVESGGCLVQAGGSLRLSCAASGFTFGPYAMGWYRQARGKERELVATLRSGDSTNYADSVKGRFTISRDNAKNTVYLQMNSVKPDDTAVYYCAVSYLSTMGRSRYEYWGQGTQVTVSS,low polyreactivity
20,QVQLVESGGCLVQAGGSLRLSCAASGFTFPGNAMGWYRQAPGKERELVAAMSASGGKTYYADSVKGRFTISRDNAKNTVYLQMNSLKPEDTAVYYCAAVVAFATGTYYYWGQGTQVTVSS,high polyreactivity
21,QVQLVESGGCLVQAGGSLRLSCAASGFTFPYYAMGWDRQAPGKERELVAAISSGGRTNYADSVKGRFTISRDNAKNTVYLQMNSLKPEDTAVYYCATRSYVFAWEFNYWGQGTQVTVSS,high polyreactivity
22,QVQLVESGGCLVQAGGSLRLSCAASGITFYEYAMGWSRQAPGKERELVAGITWSGGSTYYADSVKGRFTISRDNAKNTVYLEMNSLKPEDTAVYYCAATGAFWYPYDYWGQGTQVTVSS,high polyreactivity

row,Sequence,polyreactivity (PSR sort gate)
1,QVQLVESGGCLVQAGGSLRLSCAASGLTLDQYALGWYRQAPGKEREFVAAISYSGGNTYYADSVKGRFTISRDNAKYTVYLQMNSLKPEDTAVYYCAAYYFYFYHKVIWYELDYWGQGTQVTVSS,low polyreactivity
2,QVQLVESGGCLVQAGGSLRLSCAASGPTFSKANAMGWYRQAPGKERELVAAITDGGSTYADSVKGRFTISRDNAKNTVYLQMYSMKPEDTAVYYCAKDTEVFYDSSYDYWGHGTQVTVSS,low polyreactivity
3,QVQLVESGGCLVQAGGSLRLSCAASGRIFESNAMGWYRQAPGKERELVAAISVNGASTSYADSVKGRFTISRDNAKNTVYLQMNSLKPEDTAVYYCAARRGKGYYYWGQGTQVTVSS,high polyreactivity
4,QVQLVESGGCLVQAGGSLRLSCAASGRIFLRYAMGWYRQAPGKEREFVADITYSGGSTYYADSVKGRFTISRDNAKNTVYLQMNSLKPEDTAVYYCAAGWVRPWATYKLDYWGQGTQVTVTS,high polyreactivity
5,QVQLVESGGCLVQAGGSLRLSCAASGRIFSAYAMGWYRQAPGKESELVAAISRSGGLTYYADSVKGRFTISRDNAKNTVYLQMTSLKPEDTAVYYCAARYGSYDSRRWYYYWGQGTQVTVSS,high polyreactivity
6,QVQLVESGGCLVQAGGSLRLSCAASGRIFTYYGMGWYRQAPGKERELVAAITRSGGSTRYADSVKGRFTISRDNSKNTVYLQMNSLKPEDTAVYYCNAGGYWRYDYWGQGTQVTVSS,low polyreactivity
7,QVQLVESGGCLVQAGGSLRLSCAASGRIFYDNVMGLYRQAPGKEREFVAAISRRGGSTDYADSVKGRFTISRDNAKNTVYLQMNSLKPEDTAVYYCADDAPGADFDYWGQGTQVTVSS,low polyreactivity
8,QVQLVESGGCLVQAGGSLRLSCAASGRIFYIYAMGWYRQAPGKERELVAAITNGGSTNYADSVKGRFTISRDNAKNTVYLQMNSLKPEDTAVYYCAASVGTYAYGRTVYRYDYWGQGTQVTVSS,low polyreactivity
9,QVQLVESGGCLVQAGGSLRLSCAASGRIFYNYAMGWYRQAPGKERELVAAISGSGGSTYYADSVKGRFTISRDNAKNTVYLQMNSLKPEDTAVYYCSTSGPQYYSRNFDYWGQGTQVTVSS,low polyreactivity
10,QVQLVESGGCLVQAGGSLRLSCAASGRIIGANAMGWYRQAPGKERELVAAITKNGGRTYYADSVKGRFTISRDNAKNTVYLQMNSLKPEDTAVYYCARGLDVISYGYDYWVQGTQVTVSS,high polyreactivity
11,QVQLVESGGCLVQAGGSLRLSCAASGRSLTDYAMGWYRKAPGKERELVAAISRSGGSTYYADSVKGRFTISRDHAKNTVYLQMNSLKTEDTAVYYCAAGTPKRVGGGYWGQCTQVTVSS,high polyreactivity
12,QVQLVESGGCLVQAGGSLRLSCAASGRTFINNAMGWYRQAPGKERELVAAISWDGGRTYYADSVKGRFTISRDNAKNTVYLQMNSLKPEDTAVYYCNAQPNYAYHGEDDYWGQGTQVTVSS,high polyreactivity
13,QVQLVESGGCLVQAGGSLRLSCAASGRTFRVNAMGWYRQAPGKEWELVAAITWRGGSTYYADSVKGRFTISRDIAKYTVYLQMNSLKPEDTAVYYCAARYSSSSRRQKSDYWGQGTQVTVSS,high polyreactivity
14,QVQLVESGGCLVQAGGSLRLSCAASGRTFRYYAMGWYRQAPGKERELVAAISSSGDRTYYADSVKGRFTISRDNAKNTVYLQMNSLKPEDTAVYYCAADRGARGDYWGQGTQVTVSS,high polyreactivity
15,QVQLVESGGCLVQAGGSLRLSCAASGRTFSYYAMGWYRQAPGKVRELVAAISRRGGSTTYADSVKGRFTISRDNAKNTVYLQMNSLKPEDTAVYYCNTYPPAHREYASWGQGTQVTVSS,high polyreactivity
16,QVQLVESGGCLVQAGGSLRLSCAASGRTFVTYAMRWYRQAPGKERELVAGISRRGGRTYYADSVKGRFTISRDNAKNTVYLQMNSLKPEDTAVYYCAALTYYGSDYWGQGTQVTVSS,high polyreactivity
17,QVQLVESGGCLVQAGGSLRLSCAASGRTFYAYAMGWYRQAPGKERELVAAISWRGGDTYYADSVKGRFTISRDNAKNTVYLQMNSLKPEETGVYYCAKYLSRQSGDGEYDYWGQGTQVTVSS,low polyreactivity
18,QVQLVESGGCLVQAGGSLRLSCAASGRTLHYYAMGWYIPAPGKVRELVARINWSGGSTYYADSVKGRFTISRDNAKKTVYLQMNSLKPEDTAVYYCAARKNRAYGYWGQGTQVTVSS,high polyreactivity
19,QVQLVESGGCLVQAGGSLRLSCAASGSIFAEYAMGWSRQAPGKERELVASISSRGGRTFYADSVKGRFTISRDNAKNTVYLQMNSLKPEDTAVYYCNALRIYITKKTGYGYWGQGTQVTVSS,high polyreactivity
20,QVQLVESGGCLVQAGGSLRLSCAASGSIFGTYTMGWYRQAPGKERELVATISNSGGNTYADSVKGRFTISRDNAKNTVNLQMNSLKPEDTAVYYCAVVGGEFSSYGYWGQGTQVTVSS,low polyreactivity
21,QVQLVESGGCLVQAGGSLRLSCAASGSIFGWYDMGWYRQARGYERELVAAMTSDGSTNYADSVKGRFTISRDNAKNTVYLQKNSLKPEDTAVYYCAQDGWYYYYPYDYWGQGTQVTVSS,low polyreactivity
